Results from the Human Domainome abundance scans (Beltran et al. 2025).

B1: Nucleosome-remodeling factor subunit BPTF, residues 2862 to 2918; numbered along this chain, Q12830 (parent)
chain: TKKDTKLYCICKTPYDESKFYIGCDRCQNWYHGRCVGILQSEAELIDEYVCPQCQST

Variants of: B1
Assay: abundance fitness (aPCA) (normalised: wild type 0, dead -1); higher = more abundant; growth selection in yeast, the domain comes from the species named
Settings: Homo sapiens

Abundance fitness: each site, then its substitutions
Y49: L -0.36; H -0.491; A -0.382; Q -0.615; R -0.47; C -0.761; P -0.494; F -0.069; M -0.481; G -0.526; D -0.715
G33: W -0.445; Y 0.053; F -0.192; A -0.007; D -0.229; Q 0; K -0.271; V -0.098; M -0.446; S -0.2; N -0.357; T -0.238; P 0.053; I 0.011; C 0.196
I46: S -0.095; N -0.098; V -0.073; Y -0.282; A -0.176; Q -0.058; G -0.254; T 0; D -0.365; R -0.045; E -0.228; M -0.037; P -0.03; W -0.154; F -0.163; L -0.027; C -0.483; H -0.11
W30: S -0.009; I -0.033; D -0.097; H 0.004; F 0.115; Y 0.083; R 0.142; L 0.127; N -0.159; A 0.09; M 0.037; G -0.116; P -0.155; C -0.123; T 0.095; K 0.163
E44: K -0.018; T -0.165; Q -0.086; R -0.045; P -0.097; A -0.001; C -0.137; W -0.408; L -0.11; F -0.089; S -0.048; M -0.089; I -0.193; N -0.116; D 0.027; V -0.123
Q40: L -0.282; H 0.002; T -0.127; S -0.049; M -0.244; A -0.072; N -0.296; G -0.062; I -0.378; C -0.12; K -0.214; W -0.371; V -0.19; D -0.126; F -0.201; P -0.2; E -0.036; Y -0.306
L45: I -0.128; R 0.04; S -0.075; M -0.219; G -0.053; N -0.017; H 0.101; D -0.04; K -0.018; P -0.309; W -0.185; Y -0.179; A -0.111; V -0.001; T -0.03
N29: T -0.191; I -0.431; L -0.198; K -0.124; Y -0.376; V -0.064; R -0.061; S -0.047; Q 0.089; M -0.1; H -0.062
R34: H 0.035; T -0.065; K 0.109; Y -0.107; N 0.075; E 0.005; D 0.105; F -0.258; A 0.026; I -0.164; M -0.251; P -0.144; S 0.051; Q 0.01; W -0.363
E42: D -0.003; R -0.403; A -0.099; P -0.342; M -0.288; V -0.269; K -0.083; F -0.274; G -0.294; L -0.468; Q -0.021; T -0.37; Y -0.304; C -0.129; W -0.539; S -0.205; N -0.279
H32: D -0.9; W -1.1; Q -0.898; M -0.944; L -1.02; Y -1; K -0.979; T -1.1; G -0.831; P -0.95; I -1; E -0.929; R -0.808; A -0.832; N -0.879; S -0.797; F -0.891
V36: D -0.801; C -0.572; S -0.669; N -0.393; W -0.927; Y -0.957; K -0.531; I -0.109; Q -0.862; F -0.832; L -0.123; A -0.565; G -0.863; P -0.983; M -0.381; H -0.785
L39: G -0.116; W -0.326; P 0.102; T -0.08; F -0.006; R -0.033; E 0.225; V -0.286; D -0.062; A -0.306; S -0.024
Y31: P -0.787; K -0.649; T -0.723; R -0.79; D -1.01; H -0.592; V -0.341; N -0.573; M -0.412; F 0.01; G -0.804; W -0.527; E -0.772; L -0.279; C -0.206; S -0.693; Q -0.706
C35: Q -0.804; A -0.827; S -0.75; P -0.74; R -1.01; V -1.06; G -0.958; T -0.933; W -0.981; L -0.81; K -0.915; N -1.07; F -0.92; M -0.827; D -0.931; H -0.764; E -0.834; Y -0.878
I38: A -0.452; R -0.234; Y -0.059; D -0.432; L -0.014; T -0.146; M -0.084; G -0.489; W -0.46; E -0.44; H -0.342; K -0.278; P -0.428; F -0.182; C -0.582; N -0.547
A43: R -0.076; T -0.148; H 0.013; S -0.119; D -0.392; N -0.251; L -0.144; I 0.016; Y -0.074; W -0.182; Q 0; M -0.13; K -0.025; P -0.167; F -0.17; E -0.226; V -0.036; G -0.028
G37: Q -0.216; C -0.379; H -0.157; N -0.158; A -0.277; F -0.418; W -0.681; I -0.882; Y -0.418; L -0.411; K -0.009; S -0.074; M -0.359; P -0.99; R -0.207; E -0.23
S41: R 0.019; N 0.038; D -0.071; W -0.207; G -0.105; T 0.069; M -0.137; I -0.507; E 0.017; H -0.152; C -0.213; F -0.173; Q -0.07; K -0.015; Y -0.132; L -0.198; A -0.146; P -0.106
D47: C -0.043; R -0.044; M -0.14; E 0.101; W -0.326; N -0.03; K 0.089; T -0.051; G 0.054; S -0.053; F -0.219; P -0.107; V -0.138; H 0.134; L -0.058; Q 0.077; A 0.003; I -0.227
E48: N 0.076; Y -0.125; T -0.002; P 0.086; G -0.112; C -0.009; I -0.063; H -0.062; K -0.109; F -0.262; A -0.008; L -0.139; W -0.295; S 0.051; Q -0.161; V -0.022; R 0.055
